B1: MIA2 (parent)
chain: DMVSNIELPTRIHEEVYFEPSSSK

Variants of: B1
Assay: protein stability index of a GFP-peptide fusion (GPS, HEK-293T) (PSI 1-6); higher = more stable
Details: c terminus: a fixed tail appended
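Note: lentivirally expressed fusions sorted by FACS into six bins by GFP to DsRed ratio, PSI derived from sequencing read proportions per bin multiplied by bin number.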

Variant	protein stability index
DMVSNIELPTRIHEEVYFRPSSSK [E19R]	3.29
DMVSNIELPTRIHEEVYFQPSSSK [E19Q]	3.29
DMVSNIELPTRIHEEVYFTPSSSK [E19T]	3.4
DMVSNIELPTRIHEEVYFCPSSSK [E19C]	2.96
DMVSNIELPTRIHEEVYFVPSSSK [E19V]	3.15
DMVSNIELPTRIHEEVYFNPSSSK [E19N]	3.41
DMVSNIELPTRIHEEVYFIPSSSK [E19I]	2.64
DMVSNIELPTRIHEEVYFHPSSSK [E19H]	3.14
DMVSNIELPTRIHEEVYFLPSSSK [E19L]	3.63
DMVSNIELPTRIHEEVYFKPSSSK [E19K]	3.54
DMVSNIELPTRIHEEVYFMPSSSK [E19M]	3.31
DMVSNIELPTRIHEEVYFDPSSSK [E19D]	3.38
DMVSNIELPTRIHEEVYFPPSSSK [E19P]	3.52
DMVSNIELPTRIHEEVYFYPSSSK [E19Y]	2.87
DMVSNIELPTRIHEEVYFGPSSSK [E19G]	3.09
DMVSNIELPTRIHEEVYFWPSSSK [E19W]	2.72
DMVSNIELPTRIHEEVYFSPSSSK [E19S]	3.82
DMVSNIELPTRIHEEVYFFPSSSK [E19F]	2.86
DMVSNIELPTRIHEEVYFAPSSSK [E19A]	3.53
DMVSNIELPTRIHEEVYFEMSSSK [P20M]	1.88
DMVSNIELPTRIHEEVYFESSSSK [P20S]	3.52
DMVSNIELPTRIHEEVYFEASSSK [P20A]	3.69
DMVSNIELPTRIHEEVYFEKSSSK [P20K]	3.84
DMVSNIELPTRIHEEVYFEQSSSK [P20Q]	4.02

Variant	protein stability index
DMVSNIELPTRIHEEVYFENSSSK [P20N]	4.12
DMVSNIELPTRIHEEVYFEFSSSK [P20F]	2.42
DMVSNIELPTRIHEEVYFEVSSSK [P20V]	2.56
DMVSNIELPTRIHEEVYFERSSSK [P20R]	4.18
DMVSNIELPTRIHEEVYFETSSSK [P20T]	3.62
DMVSNIELPTRIHEEVYFECSSSK [P20C]	3.42
DMVSNIELPTRIHEEVYFEHSSSK [P20H]	4.06
DMVSNIELPTRIHEEVYFEWSSSK [P20W]	2.63
DMVSNIELPTRIHEEVYFEGSSSK [P20G]	4.16
DMVSNIELPTRIHEEVYFEYSSSK [P20Y]	2.99
DMVSNIELPTRIHEEVYFEISSSK [P20I]	3.02
DMVSNIELPTRIHEEVYFELSSSK [P20L]	2.72
DMVSNIELPTRIHEEVYFEDSSSK [P20D]	4.6
DMVSNIELPTRIHEEVYFEESSSK [P20E]	4.28
DMVSNIELPTRIHEEVYFEPSSSR [K24R]	3.85
DMVSNIELPTRIHEEVYFEPSSSA [K24A]	3.64
DMVSNIELPTRIHEEVYFEPSSSH [K24H]	3.56
DMVSNIELPTRIHEEVYFEPSSSN [K24N]	4.17
DMVSNIELPTRIHEEVYFEPSSSY [K24Y]	3.32
DMVSNIELPTRIHEEVYFEPSSSV [K24V]	3.51
DMVSNIELPTRIHEEVYFEPSSSL [K24L]	3.84
DMVSNIELPTRIHEEVYFEPSSSF [K24F]	3.28
DMVSNIELPTRIHEEVYFEPSSSP [K24P]	4.08
DMVSNIELPTRIHEEVYFEPSSST [K24T]	4.02

Variant	protein stability index
DMVSNIELPTRIHEEVYFEPSSSW [K24W]	2.52
DMVSNIELPTRIHEEVYFEPSSSM [K24M]	3.57
DMVSNIELPTRIHEEVYFEPSSSG [K24G]	4.55
DMVSNIELPTRIHEEVYFEPSSSE [K24E]	4.11
DMVSNIELPTRIHEEVYFEPSSSC [K24C]	3.66
DMVSNIELPTRIHEEVYFEPSSSS [K24S]	3.95
DMVSNIELPTRIHEEVYFEPSSSQ [K24Q]	4.89
DMVSNIELPTRIHEEVYFEPSSSI [K24I]	2.98
DMVSNIELPTRIHEVVYFEPSSSK [E15V]	2.6
DMVSNIELPTRIHEYVYFEPSSSK [E15Y]	3.22
DMVSNIELPTRIHEWVYFEPSSSK [E15W]	2.75
DMVSNIELPTRIHESVYFEPSSSK [E15S]	3.54
DMVSNIELPTRIHETVYFEPSSSK [E15T]	3.9
DMVSNIELPTRIHEEVFFEPSSSK [Y17F]	4.35
DMVSNIELPTRIHEEVDFEPSSSK [Y17D]	4.41
DMVSNIELPTRIHEEVEFEPSSSK [Y17E]	4.95
DMVSNIELPTRIHEEVKFEPSSSK [Y17K]	4.27
DMVSNIELPTRIHEEVSFEPSSSK [Y17S]	4.06
DMVSNIELPTRIHEEVGFEPSSSK [Y17G]	4.47
DMVSNIELPTRIHEEVHFEPSSSK [Y17H]	4.29
DMVSNIELPTRIHEEVNFEPSSSK [Y17N]	4.32
DMVSNIELPTRIHEEVVFEPSSSK [Y17V]	4.3
DMVSNIELPTRIHEEVRFEPSSSK [Y17R]	5.01
DMVSNIELPTRIHEEVTFEPSSSK [Y17T]	4.28

Variant	protein stability index
DMVSNIELPTRIHEEVWFEPSSSK [Y17W]	4.21
DMVSNIELPTRIHEEVMFEPSSSK [Y17M]	3.73
DMVSNIELPTRIHEEVPFEPSSSK [Y17P]	4.97
DMVSNIELPTRIHEEVIFEPSSSK [Y17I]	3.94
DMVSNIELPTRIHEEVLFEPSSSK [Y17L]	4.29
DMVSNIELPTRIHEEVQFEPSSSK [Y17Q]	4.26
DMVSNIELPTRIHEEVAFEPSSSK [Y17A]	3.67
DMVSNIELPTRIHEEVCFEPSSSK [Y17C]	4.52
DMVSNIELPTRIHEEVYAEPSSSK [F18A]	4.12
DMVSNIELPTRIHEEVYEEPSSSK [F18E]	4.68
DMVSNIELPTRIHEEVYWEPSSSK [F18W]	3.52
DMVSNIELPTRIHEEVYGEPSSSK [F18G]	4.63
DMVSNIELPTRIHEEVYMEPSSSK [F18M]	4.48
DMVSNIELPTRIHEEVYCEPSSSK [F18C]	3.59
DMVSNIELPTRIHEEVYIEPSSSK [F18I]	4.52
DMVSNIELPTRIHEEVYDEPSSSK [F18D]	5.29
DMVSNIELPTRIHEEVYKEPSSSK [F18K]	3.51
DMVSNIELPTRIHEEVYTEPSSSK [F18T]	4.63
DMVSNIELPTRIHEEVYSEPSSSK [F18S]	4.62
DMVSNIELPTRIHEEVYREPSSSK [F18R]	4.28
DMVSNIELPTRIHEEVYNEPSSSK [F18N]	4.68
DMVSNIELPTRIHEEVYYEPSSSK [F18Y]	4.76
